Results reported in PMC8373112.

System: RqcH-HTF wild-type (Bacillus subtilis)
Assay: EMSA
Conditions: native tRNA modifications, deacylated; EMSA: HEPES:Polymix buffer, 5 mM Mg2+, 0.1 uM tRNA, 1 uM mRNA(MVF) competitor, 37 C 5 min, gel at 4 C; pull-down: HEPES:Polymix pH 7.5, 1 mM DTT, 5 mM MgOAc …

tRNAAla
K half: 190 nM

tRNALys
K half: 310 nM

tRNAVal
K half: 390 nM
